Test results from the DeepSol protein solubility set.

Test: soluble on expression in E. coli; label from the status in PepcDB or PDB records

Soluble on expression in E. coli, not soluble:
MAIIGIDLGTTNSLVATWSEDGATLIPNVLGEFLTPSVVSVDETGEILVGRIAKERLITHPQLTAATFKRFIGTEKKYELGTYTFSSEELSSFVIKSLKQDAEAYLNEEVTGAVISVPAYFNDTQRKSTKRAAEIAGLTVERLISEPTAAAIAYGLYQEESETKFLVFDLGGGTFDVSILELFEGIMDVKSIAGDNYLGGEDFTRSLMTFFLESHQLDPDSLDSKTLSLIYTQAERCKLTLCNESAATMNVVIQNQTYETSINRGEFEKIVTPLLLRLRYPIERALRDASLNPNDLDAVILIGGATRMPLVKSVISKMFGRMPYANINPDETVALGAAIQVALKERNKALEEVILTDVCPYSLGTSVVQEFGDGKSESGYFFPIIERNTPIPVSKVERLYTVKDKQQFITIDVYQGENRRVVNNLKLGELKIKIPPAPAGNESVDIRYTYDINGILEVEVISTSTGEKKRTIIQQNAGNLTDAEIEKRLLELRDIKIHPRDREENRLLLAKCERLYEELLGDERKKISILLQQFESVLTTQNDKKIKEASSILKEHIESMERWANR
MQNTAHIIGAGISGLSAAVRLANAGFKVAVHEATHQAGGRCRSYFDGATNLTIDNGNHLLLSGNSHARAYARSIGTEAGLVGPESAQFPFVDIKTGQRWQIDLGTGRLPTWVLDESRRVPDTGLTDYLKLAPLIWASEETLVGKSIPTEGVLYQRLVQPLLLAALNVDPPEGSAGLAGAIVRETLLAGGQACRPLIARDGLSAVLIEPAVKFLQERGHSVQLGHELRAFVTSDGKAGALNFGGEDVIQLADGDVVVMAVPPRAAASLLPGLKTPTEFRAIVNAHFRFEPPPGSPPILGVIGGIVEWLFAFPNRLSVTISNGDRLVDMPREELAQAIWNDVCEAGGVSGELPPWQIVRERRATFAATPAQNALRPGPVTALKNLFLAGDWTATGLPATIEGSVRSGDRAADLVLAAQRPLEHHHHHH
MGSDKIHHHHHHMNAAQAGLYVDQLTVTWRNGHTALRDASFSVPRGSIAALVGVNGSGKSTLFKALMGFVRVGHGEIAILGQPVNRALRQNLVAYVPQSEEMDWSFPVLVEDVVMMGRYGHMGWLRRAKPRDREIVDAALARVGMSEFRHRQIGELSGGQKKRVFLARAIAQQGQVILLDEPFTGVDVQTEARIISLLRELRDEGCTMLVSTHNLGSVSEFCDYTVMVKGTVLASGPTETTFTAENLERAFSGVLRHVALTGGEAQVITDDERPFISRRAAGGPR
MGSDKIHHHHHHMAATFLDIAITPDVMDVQHEMGSDSLWQTPRSRRQADRFGDSEAGMIATRDSFYLATVSQSGWPYIQHRGGPPGFLHLLDDITLAMADFGGNRQYITTGNLRGSDRACLFLMDYPRRARLKIYATVEVLAAEDHPQLLAQVAPANYRARIERLFLFHLQAFDWNCPQHITPRYSAQQVAEYSQNLQQRIHDLEQENQRLQQQLARRGE
MSLNTGGNLLCVQLTVRRGPVREAKKPTPRIRNDGRYKIMQIGDLHLSTGVGACREAVPDSYNGGKCEADPRTLDFVNRVLDDEKPDLVVLSGDQVNGDTAPDAPTAMFKIVSLLIERKIPYAAIFGNHDDEKTMSREAQMAIMESLPFSLSTAGPADIDGVGNYYVEVLARGKTDHSALTIYLMDTHAYTPDERNFPGYDWVKPNQIEWFKKTAAGLKKNHNEYTGRHMDIAFIHIPLTEYADPALPRVGEWKEGVTAPVYNSGFRDALVEQGIVMVSAGHDHCNDYCSLSLAGEGETKIPALWMCYAGGSGFGGYAGYGGYHRRVRLFEVDTNEARIKTWKRLESGDTASRIDLQIIVDGGKPQPIAPVSEGHHHHHH
MTEMAKGSVTHQQLIALLSQEGANFRVVTHEAVGKCEAVSEIRGTALGQGAKALVCKVKGNGVNQHVLAILAADQQADLSQLASHIGGLRASLASPAEVDELTGCVFGAIPPFSFHPKLKLVADPLLFERFDEIAFNAGMLDKSVILKTADYLRIAQPELVNFRRTA
MGSDKIHHHHHHMKRLITTGAAFLLAATLSACNGNNTSETQGDRTEQAETVQADLFSADSAYTFVQRQVNFGPRIPGTAPHRACGDWLVATLRSFGAAVQEQTAEIKAHDGTMLPMRNIIASYRPEATGRMLLMAHWDTRPVCDQDANPAMHTETFDGADDGGSGVGVLLEIARYLGQQKDLGMGIDIVFFDTEDYGSYGDDESWCLGSQYWSRNPHVAGYKAEAGILLDMVGAKGATFYWEYFSKSYAPGLISAVWQTAAALGYGNYFIQADGGALTDDHVPVIKNLGIPCIDIINYSSKNEHGFGDHWHTQRDNMQIIDKNVLDAVGETVIRYLDEQVKAASH
MSLTDAETAVMPDRTNTSRDHAKRYVRHFLADFAKLDQEYPRTYPRMIVRGEGAYVIDEEGRRILDAGSHLGACQIGHGHPEVADRIHQQVRNIEFIALDAGISHVYAAALGERLAKMVLCDDPVFSFTNSGSESNELAFKIARQYHRRRGQPGRVKIFSRNGSYHGSTLATSAATGAAPFKEGFGPLPEGFIQGAQPSPGRCGHCGFNDACSLACLDDFERLIMAEGSETVAAVIAEPIAIPQAVKVPPPDYFVRLRKFCDDHGILLIIDEVVCGFGRTGRMFGAEHFGVHGDIVTFAKGLTSGYVPMGAVAVARHVEEVFKNAPLLHLNTYAGHPVACAAAMAVLDIMERERLVLHSARMEPILRRELQRLQNAVARVRYLSVIGLLSSVIVDISDRPDPDAVIRRVRNIAYDNGLLARVARDGALLSVHFYPPLVVAEQDIVAGVRALEIALRMIEGHHHHHH
MSTTIQYNSNYADYSISSYLREWANNFGDIDQAPAETKDRGSFSGSSTLFSGTQYAIGSSHSNPEGMIAEGDLKYSFMPQHTFHGQIDTLQFGKDLATNAGGPSAGKHLEKIDITFNELDLSGEFDSGKSMTENHQGDMHKSVRGLMKGNPDPMLEVMKAKGINVDTAFKDLSIASQYPDSGYMSDAPMVDTVGVVDCHDMLLAA
MGSDKIHHHHHHMGIIATSFIPFRGLSVSNLSETNFSETSNANVDPQEIAKFEKMAATWWDPEGEFKPIHKLNPLRLNYIDQAVGGLFGKRVLDVGCGGGILSESMARLGARVDGLDMGAEPLDVAKLHALEMGVEINYIQDTAEHHRDSHQGQYDVVTCMEMLEHVPDPASVIKACSDMVKPGGYVFFSTINRNIRAYVETVIGAEYLLKMLPVGTHDHKKYIKPAELIGMADAVDLECVDATGITYNPLTEIFRYTKSLDVNYMIATVKQDD

Soluble on expression in E. coli, soluble:
MSLTLPDFRLIRLLPLASLVLTACTLPGHKGPGKSPDSPQWRQHQQEVRHLNQYQTRGAFAYISDDQKVYARFFWQQTGQDRYRLLLTNPLGSTELELNAQPGNVQLVDNKGQRYTADDAEEMIGKLTGMPIPLNSLRQWILGLPGDATDYKLDDQYRLSEVNYRQDGKNWKVVYGGYDSKTQPAMPANMELSDGSQRIKLKMDNWIVKEGGSHHHHHH
PFKESQARGLLQDNMANSYNGGDFEDGLLNLSKEVFPTDKYLYQDGQFLDKKTINAYLNPKYTKREIDKMSEKDKKDKKANENLGLNPSHEGETNPEKIAEKSPAYLSNILEQDFYGGGDTKGKNIKGMTIGLAMNSVYYYKKEKDGPTFSKKLDDSEVKKQGKQMASEILSRLRENDDLKDIPIHFAIYKQSSEDSITPGEFITQATAEKSQTKLNEWHNINEKSALLPSSTAADYDENLNNNFKQFNDNLQSYFSNFTQAVGKVKFVDKKPQRLVVDLPIDYYGQAETIGITQYVTEQANKYFDKIDNYEIRIKDGNQPRALISKTKDDKEPQVHIYSN
HHHHHHENLYFQGSMDALQLANSAFAVDLFKQLSEKEPLGNVLFSPIALSTSLSLAQVGAKGDTANEIGQVLHFENVKDVPFGFQTVTSDVNKLSSFYSLKLIKRLYVDKSLNLSTEFISSTKRPYAKELETVDFKDKLEETKGQINNSIKDLTDGHFENILADNSVNDQTKILVVNAAYFVGKWMKKFSESETKESPFRVNKTDTKPVQMMNMEATFSMGNIDSINSKIIELPFQNKHLSMFILLPKDVEDESTGLEKIEKQLNSESLSQWTNPSTMANAKVKLSIPKFKVEKMIDPKASLENLGLKHIFSEDTSDFSGMSETKGVALSNVIHKVSLEITEDGGDSIEVPGARILQHKDELNADHPFIYIIRHNKTRNIIFFGKFSSP
MRTAEFWIGRLGLERHPEGGWYRETYRSEGSYGFNGNSPFGSPRSYATSIFYLLEHGDRSRLHRIRSDEQWYFHAGSPLDVHCFPETGDPSLFTLGDDPNAGQVLHSWVSAGHWFGASLSEQADAPGTYALVSCVVAPGFDFRDLTFADPAALTAQFPAHAQIIEKLSLEHHHHHH
MKRVLVVDDEESITSSLSAILEEEGYHPDTAKTLREAEKKIKELFFPVIVLDVWMPDGDGVNFIDFIKENSPDSVVIVITGHGSVDTAVKAIKKGAYEFLEKPFSVERFLLTIKHAFEEYSKKAPPQEEIEFVGEHPKILEIKRLIPKIAKSKAPVLITGESGTGKEIVARLIHRYSGRKGAFVDLNCASIPQELAESELFGHEKGAFTGALTRKKGKLELADQGTLFLDEVGELDQRVQAKLLRVLETGSFTRLGGNQKIEVDIRVISATNKNLEEEIKKGNFREDLYYRLSVFQIYLPPLRERGKDVILLAEYFLKKFAKEYKKNCFELSEETKEYLMKQEWKGNVRELKNLIERAVILCEGEVIKPEDLGLKEKSWRDLSYLLKIKELKEAKKEFEKIFIEEKLREYDYDLKRTAEEIGIDLSNLYRKIKSLNIRVKSS
MVTLSLPNMEGRREQLIAQVESILASAADGRVQKTKETQSVDFKEEAGRRNGPQIEPGKPENPEAADKLADEVACMANTPGGGALIVGIEDKTGRIIGTELDIDWLRQGIFTRIDVAPDVVAKRVLGQRVLAIYVAAAAEPIEDTSDRLRWRVGDSCRPVDRAEWWEYQRAQSGFDPMAQVTTATLGDARPAALALARKWDPAFAELTDEELLRGIGALDAEGFLSQAGKLLFTSLDRTAIELSIFDVHGGQVLNRVVPEPEKSCLEQLDYLEQALNVVNKNNTVVEGFVHKPVPEIPRLAVREAMLNAMIHRDWNRSEPIDVRWIELDSTLIVRSPGGFPAAITSENVLSNRAARYPALADLYRALGLVDKQGVGVDRMYQAMIALGHRPPTIEEIAGPFVETTLVGGRPVLPVLELVSSIVPEARQDDYRIAIVLYLLFQRPFITIDVVARGLQSGKEAARNALEAARQTTVAGAPLIIAHDGVWLLGNACREILRKVEPSPFSPVRYLSTDQAELTNAAMLWLSEVGDLATSDLMAMCGVSRGTAKACVDGLVDEERVVAVGGGRSRRYRLVELEHHHHHH
MVKIYLIEHVIGAVAYDENGNIVDYITNPRDLGKITEELLNNEKGIPFSATVELLKKVNPQEVVVENEAEVPKLQALGYRVSYEPYSKVSRIFRESLPKVAIDIKFASNEEDYYNFLHELSLEYTRRKLRSAAQKRDLLAIQAVRAMDDIDKTINLFSERLREWYSIHFPELDKLIEDHEEYATIVSRFGDRGFLTIDSLKELGFNEQRINRILDAAKKSIGADISEDDLSAMRMIANTILDLYNIRRNLNNYLEGVMKEVAPNVTALVGPALGARLLSIAGSLDELAKMPASTIQVLGAEKALFRALRSGGRPPKHGIIFQYPAIHTSPRWQRGKIARALAAKLAIAARVDAFSGRFIGDQLNEQLKKRIDEIKEKFAQHHHHHHHH
GGDVLERQMALMAQAAQRVQDMKRFVWDSLDSMPEPVVVTDLAGTVLIANHAAKRYCARLSAPAPEGRPLRVAFGELSFVKTVDGNAEQDVEIRSHWPAALDPTRDYENDVMERGIEVRDLSGLDHLLRYAPCTNAQGNVTGWIASLVDVTALHAAERQREEALHLLSHDM
